{
  "source": "patent US20100222401A1",
  "about": "“COMPOSITIONS AND METHODS FOR TREATING PATHOLOGIC ANGIOGENESIS AND VASCULAR PERMEABILITY” (priority 2008, published 2010)",
  "molecules": {"B1": {"name": "Slit2N (protein)", "chain": "QACPAQCSCSGSTVDCHGLALRSVPRNIPRNTERLDLNGNNITRITKTDFAGLRHLRVLQLMENKISTIERGAFQDLKELERLRLNRNHLQLFPELLFLGTAKLYRLDLSENQIQAIPRKAFRGAVDIKNLQLDYNQISCIEDGAFRALRDLEVLTLNNNNITRLSVASFNHMPKLRTFRLHSNNLYCDCHLAWLSDWLRQRPRVGLYTQCMGPSHLRGHNVAEVQKREFVCSGHQSFMAPSCSVLHCPAACTCSNNIVDCRGKGLTEIPTNLPETITEIRLEQNTIKVIPPGAFSPYKKLRRIDLSNNQISELAPDAFQGLRSLNSLVLYGNKITELPKSLFEGLFSLQLLLLNANKINCLRVDAFQDLHNLNLLSLYDNKLQTIAKGTFSPLRAIQTMHLAQNPFICDCHLKWLADYLHTNPIETSGARCTSPRRLANKRIGQIKSKKFRCSAKEQYFIPGTEDYRSKLSGDCFADLACPEKCRCEGTTVDCSNQKLNKIPEHIPQYTAELRLNNNEFTVLEATGIFKKLPQLRKINFSNNKITDIEEGAFEGASGVNEILLTSNRLENVQHKMFKGLESLKTLMLRSNRITCVGNDSFIGLSSVRLLSLYDNQITTVAPGAFDTLHSLSTLNLLANPFNCNCYLAWLGEWLRKKRIVTGNPRCQKPYFLKEIPIQDVAIQDFTCDDGNDDNSCSPLSRCPTECTCLDTVVRCSNKGLKVLPKGIPRDVTELYLDGNQFTLVPKELSNYKHLTLIDLSNNRISTLSNQSFSNMTQLLTLILSYNRLRCIPPRTFDGLKSLRLLSLHGNDISVVPEGAFNDLSALSHLAIGANPLYCDCNMQWLSDWVKSEYKEPGIARCAGPGEMADKLLLTTPSKKFTCQGPVDVNILAKCNPCLSNPCKNDGTCNSDPVDFYRCTCPYGFKGQDCDVPIHACISNPCKHGGTCHLKEGEEDGFWCICADGFEGENCEVNVDDCEDNDCENNSTCVDGINNYTCLCPPEYTGELCEEKLDFCAQDLNPCQHDSKCILTPKGFKCDCTPGYVGEHCDIDFDDCQDNKCKNGAHCTDAVNGYTCICPEGYSGLFCEFSPP"}, "B2": {"name": "SlitD1 (protein)", "chain": "ILNKVAPQACPAQCSCSGSTVDCHGLALRSVPRNIPRNTERLDLNGNNITRITKTDFAGLRHLRVLQLMENKISTIERGAFQDLKELERLRLNRNHLQLFPELLFLGTAKLYRLDLSENQIQAIPRKAFRGAVDIKNLQLDYNQISCIEDGAFRALRDLEVLTLNNNNITRLSVASFNHMPKLRTFRLHSNNLYCDCHLAWLSDWLRQRPRVGLYTQCMGPSHLRGHNVAEVQKREFVCSGHQS"}},
  "key": {"[1]": {"system": "neovascular tuft formation", "test": "Laser-induced choroidal neovascularization, SecinH3", "type": "in vivo", "settings": "wild-type mice, intravitreal injection, final concentration 21.6 μM, versus DMSO"}, "[2]": {"system": "neovascular tuft formation", "test": "Oxygen-induced retinopathy, SecinH3", "type": "in vivo", "settings": "wild-type mice, intraocular injection, final concentration 21.6 μM, versus DMSO"}, "HMVEC": {"system": "HMVEC", "test": "VEGF induced migration of HMVECs (modified Boyden chamber)", "type": "cell-based, human"}, "ARF6 [3]": {"system": "ARF6", "test": "VEGF induced ARF6-GTP, HMVEC, SecinH3", "type": "cell-based, human"}, "LPS": {"system": "LPS", "test": "Acute lung injury, intratracheal LPS, bronchoalveolar lavage", "type": "in vivo, mice", "settings": "versus Mock preparation"}, "lung endothelial cells [4]": {"system": "lung endothelial cells", "test": "VEGF-A endothelial cell migration assay, murine lung endothelial cells", "type": "cell-based, mice"}, "[5]": {"system": "human microvascular endothelial cells", "test": "Haptotaxis migration assay, human microvascular endothelial cells", "type": "cell-based", "settings": "transwells coated with fibronectin and Slit2"}, "ARF6 [6]": {"system": "ARF6", "test": "ARF6 activation assay (GST-GGA3), endothelial cells on VEGF-165", "type": "cell-based", "settings": "endothelial cells on dishes coated with VEGF-165 and Slit2"}, "c-Src": {"system": "c-Src", "test": "VEGF-A-stimulated c-Src phosphorylation, HMVEC", "type": "cell-based, human", "settings": "endothelial cells (HMVEC)"}, "[7]": {"system": "choroidal neovascularization", "test": "Laser-induced choroidal neovascularization (CNV), Slit2N", "type": "in vivo", "settings": "Robo4^+/+ mice, intravitreal administration"}, "[8]": {"system": "murine lung endothelial cells", "test": "bFGF-induced tube formation on matrigel", "type": "cell-based"}, "Rho": {"system": "Rho", "test": "Rho-GTP levels, endothelial cells on fibronectin", "type": "cell-based", "settings": "presence of Slit2"}, "Rac [9]": {"system": "Rac", "test": "Rac-GTP levels, endothelial cells on fibronectin", "type": "cell-based", "settings": "endothelial cells on fibronectin and Slit2"}, "[10]": {"system": "pathological angiogenesis", "test": "Oxygen-induced retinopathy (OIR), Slit2N", "type": "in vivo", "settings": "Robo4^+/+ mice, intravitreal administration"}, "Rac [11]": {"system": "Rac", "test": "VEGF-induced Rac activation in HUVEC", "type": "cell-based, human", "settings": "GST-PBD pull down"}, "[12]": {"system": "Avian Flu Virus, strain H5N1/Duck/Mn/1525/81", "parameters": "species or system BALB/c mice", "settings": "mouse, in vivo"}, "dermal permeability": {"system": "dermal permeability", "test": "Miles assay / VEGF-induced dermal permeability", "type": "in vivo", "settings": "Robo4^+/+ mice, concomitant intradermal Slit2"}, "Rac1": {"system": "Rac1", "test": "VEGF-A-dependent Rac1 activation, HMVEC", "type": "cell-based, human", "settings": "endothelial cell monolayers (HMVEC)"}, "Cdc42": {"system": "Cdc42", "test": "Cdc42-GTP levels, endothelial cells on fibronectin", "type": "cell-based", "settings": "presence of Slit2"}, "lung endothelial cells [13]": {"system": "lung endothelial cells", "test": "VEGF-A tube formation assay, murine lung endothelial cells", "type": "cell-based, mice"}, "[14]": {"system": "neovascularization of the retina", "test": "Retinopathy of prematurity: percent neovascularization of the retina (FIG. 12)", "type": "in vivo", "settings": "wildtype mice, Slit versus Mock preparation, N=6, P<0.003"}, "ARF6 [15]": {"system": "ARF6", "test": "ARF6 activation assay (GST-GGA3), endothelial cells on fibronectin", "type": "cell-based", "settings": "endothelial cells on fibronectin and Slit2"}, "retinal endothelium": {"system": "retinal endothelium", "test": "VEGF induced retinal permeability (Evans Blue), Slit2", "type": "in vivo, mice", "settings": "intravitreal co-injection"}, "lung endothelial cells [16]": {"system": "lung endothelial cells", "test": "In vitro permeability assay (Transwell, HRP)", "type": "cell-based, mice", "settings": "Robo4^+/+ endothelial cell monolayers, pre-treatment with Slit2"}, "endothelial cells": {"system": "endothelial cells", "test": "Spreading assay, endothelial cells", "type": "cell-based, human"}, "VEGFR2": {"system": "VEGFR2", "test": "VEGF-A-induced VEGFR2 phosphorylation, HMVEC", "type": "cell-based, human", "settings": "5 minutes"}, "[17]": {"system": "endothelial cell migration", "test": "VEGF-induced endothelial cell migration by Slit constructs (FIG. 23)", "type": "cell-based", "settings": "Slit constructs 2 nM, compared with full length Slit2; listed as Slit2-D1"}, "[18]": {"settings": "endothelial cells pre-treated with inhibitor or vehicle (Example 28)"}},
  "note": "Where “and” joins values, the source holds several entries; their conditions need not be identical. Equal entries are not always repeated. Entries after “also recorded” stand apart in the source; their conditions may differ.",
  "data": [
    {"molecule": "COc1nc(-c2ccc3c(c2)OCO3)n(-c2ccc(NC(=O)CSc3ccccc3)cc2)n1", "note": "[SecinH3]", "values": [
      {"measurement": "neovascular tuft formation in CNV", "setting": "[1]", "result": "inhibited"},
      {"measurement": "neovascular tuft formation in OIR", "setting": "[2]", "result": "inhibited"},
      {"measurement": "VEGF-165 induced cell migration response", "setting": "HMVEC; HMVEC, 15 ng/ml VEGF-165, 15 μM Secin-H3, 3 h", "result": "attenuated; also recorded: inhibits"},
      {"measurement": "VEGF-induced cell migration", "setting": "HMVEC; [18]", "result": "prevented"},
      {"measurement": "accumulation of ARF6-GTP", "setting": "ARF6 [3]; HMVEC, 20 ng/ml VEGF, 50 μM Secin-H3", "result": "blocks; also recorded: inhibits"},
      {"measurement": "VEGF-induced Arf6 activation", "setting": "ARF6 [3]; [18]", "result": "prevented"}
    ]},
    {"molecule": "B1", "values": [
      {"measurement": "concentration of inflammatory cells in bronchoalveolar lavages (BAL)", "setting": "LPS", "result": "significantly lower"},
      {"measurement": "concentration of protein in bronchoalveolar lavages (BAL)", "setting": "LPS", "result": "significantly lower"},
      {"measurement": "concentration of inflammatory cells in bronchoalveolar lavages (BAL)", "setting": "LPS; listed as Slit protein", "result": "significantly reduced"},
      {"measurement": "concentration of protein in bronchoalveolar lavages (BAL)", "setting": "LPS; listed as Slit protein", "result": "significantly reduced"},
      {"measurement": "VEGF-A-dependent endothelial cell migration", "setting": "lung endothelial cells [4]; Robo4^+/+ endothelial cells", "result": "inhibited"},
      {"measurement": "VEGF-A-dependent endothelial cell migration, inhibitory activity", "setting": "lung endothelial cells [4]; Robo4^AP/AP endothelial cells", "result": "lost"},
      {"measurement": "fibronectin-driven cell migration (haptotaxis)", "setting": "[5]", "result": "blocked"},
      {"measurement": "VEGF-165-induced ARF6 activation", "setting": "ARF6 [6]", "result": "prevented"},
      {"measurement": "VEGF-A-stimulated phosphorylation of c-Src", "setting": "c-Src", "result": "reduced"},
      {"measurement": "angiogenesis in laser-induced choroidal neovascularization", "setting": "[7]", "result": "reduced"},
      {"measurement": "bFGF-induced endothelial tube formation", "setting": "[8]", "result": "blocked"},
      {"measurement": "Rho activation", "setting": "Rho", "result": "unaltered"},
      {"measurement": "fibronectin-induced increase in Rac-GTP", "setting": "Rac [9]", "result": "efficiently blocked"},
      {"measurement": "angiogenesis in oxygen-induced retinopathy", "setting": "[10]", "result": "markedly reduced"},
      {"measurement": "VEGF-stimulated Rac activation", "setting": "Rac [11]", "result": "completely suppressed"},
      {"measurement": "mortality", "setting": "[12]", "result": "lower mortality"},
      {"measurement": "survivability rate", "setting": "[12]", "result": "25% and 50%"},
      {"measurement": "Av. Wt.", "setting": "[12]; iv", "result": "17.4 grams and 18.5 grams and 16.0 grams and 15.4 grams"},
      {"measurement": "VEGF-A-stimulated leak of Evans Blue into the dermis", "setting": "dermal permeability", "result": "prevented"},
      {"measurement": "VEGF-A-dependent Rac1 activation", "setting": "Rac1", "result": "prevented"},
      {"measurement": "Cdc42 activation", "setting": "Cdc42", "result": "significantly reduced"},
      {"measurement": "VEGF-A-dependent tube formation", "setting": "lung endothelial cells [13]; Robo4^+/+ endothelial cells", "result": "inhibited"},
      {"measurement": "VEGF-A-dependent tube formation, inhibitory activity", "setting": "lung endothelial cells [13]; Robo4^AP/AP endothelial cells", "result": "lost"},
      {"measurement": "reduction in neovascularization", "setting": "[14]", "result": 63, "unit": "%"},
      {"measurement": "fibronectin-induced increase in ARF6-GTP", "setting": "ARF6 [15]", "result": "efficiently blocked"},
      {"measurement": "VEGF-A induced leak of Evans Blue from the retinal blood vessels", "setting": "retinal endothelium; Robo4^+/+ mice", "result": "suppressed"},
      {"measurement": "VEGF-A induced leak of Evans Blue from the retinal blood vessels", "setting": "retinal endothelium; Robo4^AP/AP mice", "result": "refractory"},
      {"measurement": "VEGF-A-enhanced accumulation of HRP in the lower chamber", "setting": "lung endothelial cells [16]", "result": "prevented"},
      {"measurement": "cell spreading on fibronectin", "setting": "endothelial cells", "result": "markedly inhibited"},
      {"measurement": "cellular protrusive activity stimulated by integrin ligation (spreading)", "setting": "endothelial cells; endothelial cells on 9-11 fragment of fibronectin and Slit2", "result": "suppressed"},
      {"measurement": "VEGF-A-induced VEGFR2 phosphorylation", "setting": "VEGFR2", "result": "no effect"}
    ]},
    {"molecule": "B2", "values": [
      {"measurement": "Inhibition of VEGF mediated endothelial cell migration", "setting": "[17]", "result": "active"}
    ]}
  ]
}
